A short description of this data set: label from the status in PepcDB records.
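Also: failed if final PepcDB status was selected cloned or expressed and not failed if soluble or beyond.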

As for “MTLVEFPAITFAAVVCWAVGSLLQIPAKNSKVSGPLSWLFLFSGTLVLVWFLASYWIALDRPPLRTLGETRLWYATLIPVVGFLVEYRYKIGWLKYYCMGLATVFLGINYMHPDVFEKALMPALQSPWFVPHVVVYLVGYVLLAASAVSGWHNVFLNFRGKRSAKGESMAHYLALLGFVLLTFGLIFGALWAKEAWGHYWTWDPKETWAFISWLAYLGYLHLVACKTDPRKLQWYLGLAFFVLLVCWFGVNYLPSAQNSVHTYSGAS”, the protein production entry is “failed”.
The entry for “MTMAVGTFKQSRFQLPLPRLSVMDRYLFVELFLPFIFGMGMFTSLALSIGTLFDLVRRVTESGLPMDIAVKILFLKMPEFVVLAFPMSMLLASLMAYSRLSSDSELIALRSIGVSIYRLVVPALLFGIVVTGIAFVFNDRITPAASYEALATLDRAIHQDRPPRQEQNIIYPEYGMVRQPDGNEKNILKRLFYAEEFNGSEMKGLTILDRTQSGVNQVLTAERASWNISENTWDFYDGTVYLIAPDGSYRNIVRFRHQQLALPRAPLDLASQERKDGEMTIAQSRRYLEVLRLSGDDKKVRKLEVRIQKKYALPFVCFVFGLIGAAIGVRPQNTNKATSFGICVGLIFFYYLLSFLSESMGIWGALDPFTAAWLPNFLGLIAGTILLVQSSRLR” is “failed”; for “MTMDNFSIRPMKRSELDVVIDWAAIEGWNPGIYDAECFYQADQCGFFVGELNNELVASISAVAYSQHFAVIGFYIVKEQFRGRGFGMKMWRTAMAYLGSERNISLDGVIAQQENYKKSGFQIAYRHIRYQV” it is “failed”; for “MTMEALQFLLAAPPGAYDPVARTIEDEPRPSQPPTSALALDIRGLRKSFGDNDVLRGIDLHIPAGQFVTIVGRSGCGKSTLLRLIAGLETPTAGHIVFGEDKLPGDVRVMFQEPRLLPWARVLANVEVGLGTERNSPDARARADAALIEVGLDDKRGEWPAVLSGGQKQRVALARALVSRPRVLAFDEPLGALDALTRIAMQRLLEQVWQAQGFTAILVTHDVAEAVALADRVLVIEDGRIAKDLPIDLPRPRQRGSAELAALEGEILRDLLKGAEDTFEL” it is “failed”.
On to “MTMIEPDPADFEPIHPYSLARISHVALQAGAVLAQSGASVRVVHEGARMVAEGLGVEVLGMRSGYASFEITLARGHHSFTRMTQIGPHGVNHRLDFAVRDLLKRAARGDMTPDAIEAELKRLQSETPRHPPWLVAIATGAACAAFGRLLGSDWLSFGPVLAAASIGQGVRHLLLGRRFNVFVVAAIVGCISAALGGLGARLIGSSTTELAMMASILLLVPGVPSTNAQTDVMDGYPTMGSARAVTVIMIMVFAVTGLWLAEFVLRIHT”, for which the protein production entry was “failed”.
For “MTMITFSARLAPFQPETVWTLEAGTLIETRGRIERRFPLSSLTRYSLSLAPDGRRRVLLVVFGRRRLLIPSQSYVGPGRFEDRLAAFSVLARALAAVGADLSPRARFGLARLEARTALTFVMGLLAFGAASTLLFSLTAGMVAVGVDLAARMAFVLILMVAALPWLARPADFDPRDPPADLLP”, the protein production result is on record as “failed”.
As for “MTMKKSEITVALAGNANVGKSVIFNQLTGSNQIVGNWPGKTVERAEGYLKFQGRDIHIIDLPGIYSFSTYSMEEIVSRDFIINEGPDVVINVLDASVLERNLFFTLQLMEMEVPMVICINQVDMARQKGITIDDEKLEKVLGVPVVSTVAVKGRGLQELLRKTVEVADKKTLPRIIEYGEEIETRIGKLMDALPEIPEGYSARWVAIKLLENDPQITAMMPEDVRKLASELAAEIESIHGEPAFSVITSERYAISSMIAAGAQRQEEIKTSLSERLDGFLTHPVYGYISSVLVVGGLLLWTFVVGEFLSDTLTGIFGFFQPVDPKFSGSIESIIWNGAFGGIVAGLTLVIPFVIPFYLMLSYIENSGLLTRVAFMMDAFMRKIGLHGKALIPLILGYGCSVPAIDSTRILETHRERLLAAFAISFAPCAARTILILGLVALFVNVWWAIGLYALDLLIIFIMGKVALKALPGETTGLIMEMHSLKMPSFRVIARQTWTRTRSLIYLVFPIYIIGSALIQLLYALGWLNPISAFMAPLTVGWLKLPVFAGILLILGAVRKEFILLGLVSLVGTNIGAALTAPQILVLTLVGMLYFPCLSTIAILAREFSWRSTSIITLANLGTALFLGGLFARILPLIF”, the protein production entry was “failed”.
Take “MTMPRLASSRWWYIMPIVFVTYSLAYLDRANYGFAAASGMADDLRITPGLSSLLGALFFLGYFFFQVPGAIYAEKRSVKKLIFVSLILWGGLATLTGMVANVYLLIGIRFLLGVVEAAVMPAMLVYLCHWFTRAERSRANTFLILGNPVTILWMSVVSGYLVEHFSWRWMFIIEGLPAVIWAFIWWRLVDDRPRQAAWLSGSEKRDLEDALAAEQQGIKPVKNYREAFRSPKVIVLSLQYFCWSIGVYGFVLWLPSILKHGANIDIIEAGWLSALPYLAAVIAMLGVSWASDRLQKRKRFVWPPLLIASIAFYGSYALGSEHFWLSYALLVLAGACMYAPYGPFFAIVPEVLPANVAGGAMALINSMGALGSFSGSWLVGYLNGITGGPGASYLFMSGALLLSVLLTVFLNPHADKREPDAARAHASRRAAPAHP”: the protein production result is given as “failed”.
Turning to “MTMRVVTAPAEPPQGASHVAPSFTRMDTSVLGRWWWTVDRPMLGAVALLIAAGVFLILAAGPPAAGRIGAQTYHFVQRQFLFVPVAGVLVIAVSLLPVLWVRRIAVLLFALFMVLLLGTLFVSSDIKGASRWIAIGPFALQPSEFVKPTFAVVTAWMFASARTQDRFPGNLIAMLLMAVVGALLVAQPDFGMTMVVACVWGTQFFLAGLSLVWVVLLAAVGMIGAVIAYFALPHVQSRVDRFLDPASGDQYQIRQSMKAFMEGGLFGRGPGEGRVKEFLPDAHTDFIFAVAGEEFGLFLCLTIVALFAFLIIRSAIRLRREQNLFVLIAAGGLLTQLGLQALINMASSLSLIPTKGMTLPFISYGGSSLLSTAVAMGMVLALTRRRAHGERT”, the protein production entry was “failed”.
As to “MTMSTTREIAFLIARILLGVILIAHGWDKFAITGLEGVTGFFDSLGIPAAGIAAIAAAVVELLGGILIILGVFTRIVAAFVAIDMLFAALFAHVSSGIFVTNNGWELTGAIGAGALLLIAVGAGAWSIDGVLAKRKA”, the protein production result is recorded as “failed”.
The entry for “MTNKAIKATNEELQQVYNDIPKAYDRANRFISFNQDVKWRADLVKTILKYCKRPKLILDVASGKGELSYTFKKIYKDNSNYEIILSDYAENMLKMALIKDDKVLCSFDALPFREKTFDIVMSSFALHASDNIEDVIREITRVSRKIVGFIAMGKPDSWVRRIYLSIYLKYIMPYIAVLGGAKARDFKYIYYIYERVPTNSQHKRIFEKYIDIKVYEERALNLFYFVVGFPKE” is “failed”; for “MTNKITERITGHTELIGLIATPIRHSLSPTMHNEAFAKLGLDYVYLAFEVGDKELKDVVQGFRAMNLRGWNVSMPNKTNIHKYLDKLSPAAELVGAVNTVVNDDGVLTGHITDGTGYMRALKEAGHDIIGKKMTICGAGGAATAICIQAALDGVKEISIFNRKDDFYANAEKTVEKINSKTDCKAQLFDIEDHEQLRKEIAESVIFTNATGVGMKPFEGETLLPSADMLRPELIVSDVVYKPTKTRLLEIAEEQGCQTLNGLGMMLWQGAKAFEIWTHKEMPVDYIKEILF” it is “not failed”.

The values are drawn from a protein production outcome set (Wang et al. 2014).
